Source: the DeepSol protein solubility set

test: soluble on expression in E. coli; label from the status in PepcDB or PDB records

Sequence	soluble on expression in E. coli
MGSDKIHHHHHHMKFYNREKEVAELKRVQELAFTQNSRMIVVTGRRRIGKTSLIKEALKGTPTVYLFIGRKAESILVTDFVKIVRETLSIFVPEGIPTFTNLMQYLFEVGKTRAFNIVIDEFQEFYNIRPDVFSDMQNLWDEYKQETKINLVISGSVYSLMQKIFTDHNEPLFGRADNILCLRAFKIGVLKQIMEDLASGYSNDDLLALYTLTGGIPKYVELFCDNQALTIDKMYDFVFSENSLFIDEGRNLLITEFGKNYGTYFSILSEIANGHYTQGEIESALGGTAIGGYLSKLENVYNLITRERPIFAKPGTKKNVRYVIGDNFLNFWFKYIEQNRSYIELQNFDDLRQLAKADYPTYSGRVLEKYFKQKLAETGGFKEIGSWWETKSSIGKQRINSYEIDIVALKSSGKKALIAEVKRVPENNYSHTVFMEKVEHLKQKEMSKYDIETQVLGLKDM	not soluble
SEHPQPVTTQIEKSVNTALNKNYVFNKADYQYTLTNPSLGKIVGGILYPNATGSTTVKISDKSGKIIKEVPLSVTASTEDNFTKLLDKWNDVTIGNYVYDTNDSNMQKLNQKLDETNAKNIEAIKLDSNRTFLWKDLDNLNNSAQLTATYRRLEDLAKQITNPHSTIYKNEKAIRTVKESLAWLHQNFYNVNKDIEGSANWWDFEIGVPRSITGTLSLMNNYFTDAEIKTYTDPIEHFVPDAEYFRKTLVNPFKALGGNLVDMGRVKIIEGLLRKDNTIIEKTSHSLKNLFTTATKAEGFYADGSYIDHTNVAYTGAYGNVLIDGLTQLLPIIQETDYKISNQELDMVYKWINQSFLPLIVKGELMDMSRGRSISREAASSHAAAVEVLRGFLRLANMSNEERNLDLKSTIKTIITSNKFYNVFNNLKSYSDIANMNKLLNDSTVATKPLKSNLSTFNSMDRLAYYNAKKDFGFALSLHSKRTLNYEGMNDENTRGWYTGDGMFYIYNSDQSHYSNHFWPTVNPYKMAGTTEKDAKREDTTKEFMSKHSKDAKEKTGQVTGTSDFVGSVKLNDHFALAAMDFTNWDRTLTAQKGWVILNDKIVFLGSNIKNTNGIGNVSTTIDQRKDDSKTPYTTYVNGKTIDLKQASSQQFTDTKSVFLESKEPGRNIGYIFFKNSTIDIERKEQTGTWNSINRTSKNTSIVSNPFITISQKHDNKGDSYGYMMVPNIDRTSFDKLANSKEVELLENSSKQQVIYDKNSQTWAVIKHDNQESLINNQFKMNKAGLYLVQKVGNDYQNVYYQPQTMTKTDQLAI	soluble
MGSDKIHHHHHHMLRVKNLRLKYPNGDRKIFDNLNLEIKNKEKVLLLGPSGSGKSTLLNVLSGIVPNLIELPMKYDELNIDHDSGVIFQDPDNQFCMPKVYEELAFVLENRNIPRSEMDQEIENALKSVDLNVTHKTYVNNLSGGMKQKLAIVETILQKSKTLFLDEPTAMLDVKATEDLWKKLINLWKDQTVLIVEHKVEHIWQHVDRVLLLNYDGEIVADDTPEQILDHYEALLTEYGVWHPRAWHSAPRPIPLPNQTKNLLFHFDDGQIIRGKKTLFSSKELKLYSGEWLTITGKNGAGKTSLLEAMLQLIKYEGDMFYRDQLLSKIKQAAKHMYLVYQNPELQFITNSVYDEVYIHYNHLDPKHANDETMDLLKLLHLDQVKDHHPFEISTGQKRRLSVATALSSKAEIILLDEPTFGLDSHNTFQLIKLFQERVNQGQTIIMVTHDPEIIKRYPTRRLRVEDGCLKEMEGEHIV	not soluble
ASNSQLNAMAHQIQEMFPQVPYHLVLQDLQLTRSVEITTDNILEGRIQVPF	soluble
MEISTLLALSPLDGRYQQKVAALRPFFSEYALIRNRIHVEIEWFKALGNTPALTGASSLSTGAVVQLDQLVENFSVTDAEAVKSIETRTNHDVKAVEYWLKEKLTGDQETAAISE	not soluble
SISQQTVWNQMATVRTPLNFDSSKQSFCQFSVDLLGGGISVDKTGDWITLVQNSPISNLLRVAAWKKGCLMVKVVMSGNAAVKRSDWASLVQVFLTNSNSTEHFDACRWTKSEPHSWELIFPIEVCGPNNGFEMWSSEWANQTSWHLSFLVDNPKQSTTFDVLLGISQNFEIAGNTLMPAFSVPQANARSSENAESSA	soluble
TFGPVFEDQPLSVLFPEESTEEQVLLACRARASPPATYRWKMNGTEMKLEPGSRHQLVGGNLVIMNPTKAQDAGVYQCLASNPVGTVVSREAILRFGFLQEFSKEERDPVKAHEGWGVMLPCNPPAHYPGLSYRWLLNEFPNFIPTDGRHFVSQTTGNLYIARTNASDLGNYSCLATSHMDFSTKSVFSKFAQLNLAAEDTRLFAPSIKARFPAETYALVGQQVTLECFAFGNPVPRIKWRKVDGSLSPQWTTAEPTLQIPSVSFEDEGTYECEAENSKGRDTVQGRIIVQAQPEWLKVISDTEADIGSNLRWGCAAAGKPRPTVRWLRNGEPLASQNRVEVLAGDLRFSKLSLEDSGMYQCVAENKHGTIYASAELAVQA	soluble
MSRKKFMESVGATCSNWNWSWSFVNHEERFVVFGHWDVHKDGLIFDESWKGPGRKQSLEHISLIQNNGYRLKTFPMQYDQTETGTAKIKSFDWILEEKHLAGVDGLWYALNYSESVDITSIEEVVHPETYIEGATKEISVNAYERNPDARAKCILHYGCKCYVCKFDFQEVYGDIGKGFIHVHHEVSLAEIKKEYSVDPIKDLKPLCPNCHGIIHRTHPPISVDSLINLLRSRNLEHHHHHH	soluble
MQSCLRLAASLLSAALLCLPAPGAAQTASPAKKELLKFNWGAPTADYYALYVAKDQKLFEEVGLEPNFYFFPSGAPLLAGLKSKSLDVITTGLATVFALGQNVPLKLIYWELDHAAAEGLVVDPAAGIKSYKDIAKAKAIGAPSGTCAQVSLVLMAKELNLKYSNLNIINIAPPLYGNAFKSKSIQAAVAWSPYSSILNADQLPVVNWASDYTPDQGVCPGLTGVRTEFMQQHPDIGLKLVQVQAKAMDMIRKDPELGIGVLMKYLSVSREVAKHIYDREFSRIPTYAQQIDPASPYSLAAKDAGLARKLLIASQALAEVGTIPAPLTPQAIAEAIDPSAIQRYMKGERK	not soluble
MQTSDSIVIIPTYNERENIENIIRAVFGLEKTFHILIIEDGSPDGTAAIVKTLQQEFPDRLFMIERKGKLGLGTAYITGFKWALEHSYEYIFEMDADFSHNPNDLPRLYEACAVQGGDVAIGSRYVSGVNVVNWPMGRVLMSYFASKYVRIVTGLPIHDTTAGFKCYRRQVLETIDLDHIRFKGYAFQIEMKFTAYKCGFKIIEVPVIFINRELGTSKMNSSIFGEAVFGVIKLKVNSWFHTFPQKTKMNLEHHHHHH	not soluble
EVQLVESGGDLVKPGGSLKLSCAASGFTFSSYGMSWIRQTPDKRLEWVATISSGGSYTYYPDSVKGRFTISRDNAKNTLYLQMSSLKSEDTAMFYCARQTTMTYFAYWGQGTLVTVSAAKTTPPSVYPLAPGSAAQTNSMVTLGCLVKGYFPEPVTVTWNSGSLSSGVHTFPAVLQSDLYTLSSSVTVPSSPRPSETVTCNVAHPASSTKVDKKIEPA	soluble
MTNPQFAGHPFGTTVTAETLRNTFAPLTQWEDKYRQLIMLGKQLPALPDELKAQAKEIAGCENRVWLGYTVAENGKMHFFGDSEGRIVRGLLAVLLTAVEGKTAAELQAQSPLALFDELGLRAQLSASRSQGLNALSEAIIAATKQV	not soluble
MGSDKIHHHHHHMRNLNEKMKDIFERSVEDIKERNQNLLRPEHILLQILYDENEATKVLKDLNVNVEEVITELEDYIDSQYGIYYGFSDQVYVSKELSYILELARKEARLFKQKDIGPLHFLLGLLRDGSTHAARVLKKYGVDYEKVLQTVKEHEEEYAAEQSPLTAFATDLTKLAKEGKVGPIIGRDREIERVIEILMRKTKNNPILIGDPGVGKTAIVEGLAQRIVEGKVPDPLKDVRILMVDLGRMIAGTKYRGEFEERLKSFLDEVMKQKEKTILFIDEIHTLVGAGAAEGAMDAANMLKPALARGEIRVIGATHWMSTENT	not soluble
HVKLEQLGIPRQVLKYDDFLKSTQKSPATAPKPMPPRPPLPNQQFGVSLQHLQEKNPEQEPIPIVLRETVAYLQAHALTTEGIFRRSANTQVVREVQQKYNMGLPVDFDQYNELHLPAVILKTFLRELPEPLLTFDLYPHVVGFLNIDESQRVPATLQVLQTLPEENYQVLRFLTAFLVQISAHSDQNKMTNTNLAVVFGPNLLWAKDAAITLKAINPINTFTKFLLDHQGELFPSPDPSGL	soluble
MGSDKIHHHHHHMKHIGIIDVGSNSVRLLFAEITSKSSFKILTEFKEYVRLGSGFDSKGNITDNKIDSLISVLNLYKNFCNRFEDTEMVVTATEAFRRAKNQESIIQTVKNNLNLNIRVLSGEEEAYYDYFAAINTLDIKDGLIMDIGGSSTELILVANRTLKECVSLQFGAITLIEKFNIKDSIDEKQEKMLKDFLLESFSSIPWLKSISSTTLIGIGGSIRNIGKISKKQKDYPLNLIHNYIMPAKSAEDIYNDVKNKTLEQRKKIKGLSKDRADIFVGASLAVSMLVNILSINEIIICRNGLREGLLLSKLFHKKPIDNILDFSINNVLINNSINITHSFHVYKLTSLLFSSLQSVHKINISLDKVIKTASMFHNAGVNISYYYHHRHSAYIILNSSLYGISHKECVMSACIDIYQRSENIQSMLNEYGNMLEKEDIYAIKVIGILLRIAENLDKDLSGSIYDLKCIVDDAVVIIKTYSKEPSDFLISEAQNSSGLFKNTFNKSLYIV	not soluble
YPFWAQQTYPETPREPTGRIVCANCHLAAKPTEVEVPQSVLPDTVFKAVVKIPYDTSVQQVGADGSKVGLNVGAVLMLPEGFKIAPEDRIPEELKEEIGDVYFQPYGEDKDNIVIVGPLPGEQYQEIVFPVLSPNPANDKNIHFGKYSVHVGGNRGRGQVYPTGEKSNNNLYSAAATGTISKIAKQEGEDGSVKYLVDIKTESGEVVSDTIPAGPELIVSEGQAVTAGDALTNNPNVGGFGQLDAEIVLQDANR	soluble
MITDCCPGFGSVAKYIAVSMLEASFDVASMAKTSTKVFILEVMGRHAGWIAAAGGLASNEDHEVPIIILFPEVTFDQEKFLAKTDHYVKEYGYCTVVVSEGVKGTDGKFLSDQGLRDAFGHAQLGGVAPVIANIVKNGLGLEHHHHHH	soluble
MSRGVKRVTAITNREREAVLRIEFPNVDVTDIDFDLFQARESTDKPLDVAAAIAYRLLLGSGLPQKFGCSDEVLLNFILQCRKKYRNVPYHNFYHVVDVCQTIYTFLYRGNVYEKLTELECFVLLITALVHDLDHMGLNNSFYLKTESPLGILSSASGNKSVLEVHHCNLAVEILSDPESDVFGGLEGAERTLAFRSMIDCVLATDMARHSEFLEKYLEIMKTSYNVDDSDHRQMTMDVLMKAGDISNVTKPFDVSRQWAMAVTEEFYRQGDMEKERGVEVLPMFDRSKNMELAKGQIGFIDFVAAPFFQKIVDACLQGMQWTVDRTKSNRAQWERVLEARSTGAS	soluble
MTDGPIKVNSEIGALKTVLLKRPGKELENLVPDYLDGLLFDDIPYLEVAQKEHDHFAQVLREEGVEVLYLEKLAAESIENPQVRSEFIDDVLAESKKTILGHEEEIKTLFATLSNQELVDKIMSGVRKEEINPKCTHLVEYMDDKYPFYLDPMPNLYFTRDPQASIGHGITINRMFWRARRRESIFIQYIVKHHPRFKDANIPIWLDRDCPFNIEGGDELVLSKDVLAIGVSERTSAQAIEKLARRIFENPQATFKKVVAIEIPTSRTFMHLDTVFTMIDYDKFTMHSAILKAEGNMNIFIIEYDDVNKDIAIKQSSHLKDTLEDVLGIDDIQFIPTGNGDVIDGAREQWNDGSNTLCIRPGVVVTYDRNYVSNDLLRQKGIKVIEISGSELVRGRGGPRCMSQPLFREDI	not soluble
SDTFSTKSLALQAQKKVLSKMASKAMVAVFVDNTSSEVLDELYQATKEFTRSRKEAQRVVKNLVKVAVKLAVLLRADQLDSNELAQLQRFRGRVRSLAMTALSFHQVDFTFDRRVLATGLLECRDLLHQAIGPHLTAKSHGRINHIFSHFANGDFLAALYSPAEPYRSHLCRICDGLGRMLDEGGI	soluble
GTGAESTAERSARFERDALEFLDQMYSAALRMTRNPADAEDLVQETYAKAYASFHQFREGTNLKAWLYRILTNTFINSYRKKQREPQ	soluble
